Measurements reported in article PMC4917298 (Nature immunology, 2016).

Molecular target: S6K1(WT)-HA (mouse, UniProt Q8BSK8-2 1-502)
Assay: co-IP

Sequence of S6K1(WT)-HA (Q8BSK8 24-525): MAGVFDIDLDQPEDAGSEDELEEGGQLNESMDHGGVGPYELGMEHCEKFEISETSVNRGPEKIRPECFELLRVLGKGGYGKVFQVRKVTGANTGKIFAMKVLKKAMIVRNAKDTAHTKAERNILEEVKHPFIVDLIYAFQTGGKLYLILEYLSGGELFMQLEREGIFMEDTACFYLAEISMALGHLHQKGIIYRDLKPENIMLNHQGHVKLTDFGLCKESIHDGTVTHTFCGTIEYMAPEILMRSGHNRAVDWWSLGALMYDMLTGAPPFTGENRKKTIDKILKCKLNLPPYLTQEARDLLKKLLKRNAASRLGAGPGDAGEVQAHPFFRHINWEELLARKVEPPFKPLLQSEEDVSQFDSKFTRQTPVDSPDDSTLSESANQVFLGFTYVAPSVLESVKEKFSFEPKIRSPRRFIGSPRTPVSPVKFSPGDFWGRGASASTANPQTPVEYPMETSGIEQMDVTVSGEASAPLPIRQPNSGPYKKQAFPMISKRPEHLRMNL

B1: phosphorylated STING-Flag (phosphorylated by TBK1) (natural protein, mouse, UniProt Q3TBT3 1-378, looked up)
chain: MPYSNLHPAIPRPRGHRSKYVALIFLVASLMILWVAKDPPNHTLKYLALHLASHELGLLLKNLCCLAEELCHVQSRYQGSYWKAVRACLGCPIHCMAMILLSSYFYFLQNTADIYLSWMFGLLVLYKSLSMLLGLQSLTPAEVSAVCEEKKLNVAHGLAWSYYIGYLRLILPGLQARIRMFNQLHNNMLSGAGSRRLYILFPLDCGVPDNLSVVDPNIRFRDMLPQQNIDRAGIKNRVYSNSVYEILENGQPAGVCILEYATPLQTLFAMSQDAKAGFSREDRLEQAKLFCRTLEEILEDVPESRNNCRLIVYQEPTDGNSFSLSQEVLRHIRQEEKEEVTMNAPMTSVAPPPSVLSQEPRLLISGMDQPLPLRTDLI
modifications: phosphorylated by TBK1 (slower mobility, removed by calf intestine phosphatase); sites not stated
binding result: binds
